Measurements as given in the nanobody polyreactivity screen of Harvey et al. (2022).

Assay: yeast display, Sf9 membrane polyspecificity reagent, FACS + sequencing; frameworks hold sequencing errors
Outline: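 Galactose induction of a Saccharomyces cerevisiae BJ5465 synthetic nanobody display library ran 36–48 hours. The cells were then stained for 1 hour at 4 °C with 10% biotinylated, detergent-solubilized Sf9 membrane reagent, pulled down on streptavidin microbeads and FACS-sorted into low and high (top ~1%) gates on expression and reagent-binding fluorescence. Labels for polyreactivity follow the gate of origin.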

## QVQLVESGGGLVQAGGSLRLRCAASGSTFGGYAMGWYRQAPGKERELVAAISRRGGRTYYADSVKGRFRISRDNAKNTVYLQRNSLKPEDTAVYYSAADWSYVRYYYWGQGTQVTVSS
  polyreactivity (PSR sort gate): high polyreactivity

## QDQLVESGGGLVQAGGSLRLSCAASGRIIRAYAMGWYRQAPGKERELVAAISGGSNTNYADSVKGRFTISRDNAKNTVYLQMNSLKPEDTAVYYCAADAGYWESLWYPYGFYWGQGTQVTVSS
  polyreactivity (PSR sort gate): low polyreactivity

## QVQLVESGGGLVQAGGSLRLSCAASGSTFQYYDMGWYRQAPGKERELVASITGSGDSTYYADSVKGRFTISRDNAKNTVYLQMNSLKPEDTAVYYCAAQNTWSGDYDYWGQGTQVTVSS
  polyreactivity (PSR sort gate): low polyreactivity

## QVQLGESGGGLVQEGGSLRLSCAASGSTLQDYDMGWYRQAPGKERELVAAITWSTGTTYYADSVKGRFTISRDNAKNTVYLQMNSLKPEDPAVYYCAVDSYYRATYTYRYDYWGLGTQVTVSS
  polyreactivity (PSR sort gate): low polyreactivity

## QVKLVESGGGLVQAGGSLRLSCAASGRNFYVYGMGWYRQAPGKERELVASITYRCGSTSYADSVKGRFTISRDNAKNTVYLQMNSLKPEDTAVYYCNADTYYRSDYWGQGTQVTVSS
  polyreactivity (PSR sort gate): high polyreactivity

## QVQLVESGGGLVQAGGSLRLSCAASGRTFYTYAMGWYRQAPGKERELVAAISSSGSTYYADSVKGRFTISRDNAKNTVYLQMNSLKPEDTAVYYCNARTSRYRRGGDSWGQGTQVTVSS
  polyreactivity (PSR sort gate): high polyreactivity

## QVQLVESGGGLVQAGGSLRLSCAASGGTFHKYDMGWYRQAPGKERELVAYADSVKGRFTISRDNAKNTVYLQMNSLKPEDTAVYYCNADWQSYGYLCHSSLYYYWGQGTQVTVSS
  polyreactivity (PSR sort gate): low polyreactivity

## QVQLVESGGGLDQAGGSLRLSCAASGRNYGLYAMGWYIQAPWKERELVAAITRTASTNYADSVNGRFTISRDNAKNTVYLQMNSLKPEDTAVYYCAAESWYPSDLWYTYEYWGQGTQVTVSS
  polyreactivity (PSR sort gate): low polyreactivity

## QVQLLESGGGLVQAGGSHRLSCAASGIIFQWNVMGWYRQAPGKERELVASITSGSSTHYADSVKVRFTISRDNAKNSVYLQMNSLKPEDTAVYYFAADGALRAEYDVEIEYDYWGQGTQVNVSS
  polyreactivity (PSR sort gate): low polyreactivity

## QVQLVESGGGIVQAGGSLRLSCAASGSTFQTYVMGWYRQAPGKERELVAAISSGGSTNYADSVKGRFTISRDNAKNTVYLQMNSLKPEDTAVYYCAKRWPYFRRGKDGYWGQGTQVTVSS
  polyreactivity (PSR sort gate): low polyreactivity

## QVQLVESSGGLVQAGGSLSLICAASVLIFNFYSMGWYRQAPGKERELVDAISWNAGSTYYADSVKGRFTISRDNAKNTVYLQMNSLKPEDTAVYYCAVLPGRYDKTASHYDYWGQGTQVTVSS
  polyreactivity (PSR sort gate): low polyreactivity

## QVQLVESGGGLVQAGGSLRLSCAASGFIFPSYAMGWYRQAPGKERELVAAITSSGGSTYYADSVKGRFTISRDNAKNTVYLQMNSLKPEDTAVYYCNARYPGRARRYNYWGQGTQVTVSS
  polyreactivity (PSR sort gate): high polyreactivity

## QVQLVESGGGLDQAGGSLRLSCAASGRTFYANPMGWYRQAPGKQRELVAAIRRSGGRTYYADSVKGRFTISRDNAKNTVYLQMNSLKPEDTAVYYCATARYRAEMGYWGQGTQVTVSS
  polyreactivity (PSR sort gate): high polyreactivity

## QVQLVESGGGLVQAGGSLRLSCAASGTTLYYYAMGWSRQAPGKERELVASITKSGASTYYADSVKGRFTISRDNAKNTVYLQMNSLKPEDTAVYYCARDPFWRGYTPRHYNYWGQGTQVTVSS
  polyreactivity (PSR sort gate): low polyreactivity

## QVQLVESGGGLVQAGGSLRLSCAASGSTSTYYAMGWYRQAPGKERELVAAITLGAGRKYADSVKGRFTISRDNAKNTVYLQMNSLKPEDTAVYYCAADSHIDHGKWAYDYWGQGTQVTVSS
  polyreactivity (PSR sort gate): low polyreactivity

## QVQLVESGGGLVQAGGSLRLSCAASGGTFQSNGMGWYIQAPGKERELVATITGSGGDTSYAGSVKGRFTISRDNAKNTVYLQMNSLKPEDTAVYYCAAADADRKYDYWGQGTQVTVSS
  polyreactivity (PSR sort gate): low polyreactivity

## QVQLVESGGGLVQAGGSLRLSCAASGRTFGRNAMGWYRQAPGKERELVAAISDRGASTYYADSVKGRFTISRDNAKNTVYLQMNSLKPEDTAVYYCAAVFWVDILPGDYWGQGTQVTVSS
  polyreactivity (PSR sort gate): low polyreactivity

## QVQLVESGGGLVQAGGSLRLICAASGRTFGGNAMGWYRQAPGKERELVASITSRGGTTYYADSVKGRFTISRDNAKNTVYLQMNSLKPEDTAVYYCAALRRSSFGYWGQGTQVTVSS
  polyreactivity (PSR sort gate): high polyreactivity

## QVQLQESGGGLVQAGGSLRLSCAASGSIFDGFNMGWYRQAQGKEREFVAAISYGASTYYADSVKGRFTVSRDNAKNSVYLQMNSLKPEDTAVYYCAVYDELYHVLVYWGRGTQVTVSS
  polyreactivity (PSR sort gate): low polyreactivity

## QVQLVESGGGLVQAGGSLRLSCAASGLILRRYAMGWYRQAPGKERELVAAITSGGRTYYADSVKGRFTISRDNAKNTVYLQMNSLKPEDTAVYYCNAVKLVRHTTPYDYWGQGTQVTVSS
  polyreactivity (PSR sort gate): high polyreactivity

## QVQLVESGGGLVQAGGSLRLSCAASGFIFVLYSMGWYRQAPGKERELVAGITGSTDTYYADSVKGRFTISRDNAKNTVYLQMNSLKPEDTAVYYCAAGRLRIWYDSWGQGTQVTVSS
  polyreactivity (PSR sort gate): low polyreactivity

## QVQLVESGGGLVQAGGSLRLSCAASGITFEYYDMGWYRQAPGKERELVAAISWSTDITYADSVKGRFTISRDNAKNTVYLQLNSLKPEDTAVYYCAALGGLSDFWHLYDYWGQGTQVTVSS
  polyreactivity (PSR sort gate): low polyreactivity

## QVQLVESGGGLVQAGGSLRLSCAASGSTFYGNAMGWYRQAPGKERELVAAITWGDASTYYADSVKGRFTISRDNAKNTVYLQMNSLKPEDTAVYYCAVDESYGSSSDMDYWGQGTQVTVSS
  polyreactivity (PSR sort gate): low polyreactivity

## QVQLVESGGGLVQAGGSLRLSFAASGRTFEKYAMGWYRQAPGKERELVAAISGSGGSTFYADSVKGRFTISRDIAKYTVYLQMISLKPEDSAVYYCAADSRSHPGDYWGQGTQVTVSS
  polyreactivity (PSR sort gate): low polyreactivity

## QVQIVESGGGLVQAGRSLRLSCAASGIIFDHYAMGWYRQAPGKERELVAAITTGGGNTYYADSVKGRFTISRDNAKNTVYLQMNCLKPEDTAVYYCNDDGLWGRRWGDYYGYDYWGQGTQVTVSS
  polyreactivity (PSR sort gate): low polyreactivity

## QDQLVESGGGLVQAGGSLRLSCAASGITSSMNSMGWYRQAPGKERELVAAISWRGGSTYYADSVKGRFTISRDNAKNTVYLQLNSLKPEDTAVYYCAVRGKFDYWGQGTQVTVSS
  polyreactivity (PSR sort gate): high polyreactivity

## QVQLVESGGGLVQAGGSLRLSCAASGSIFYYNYMGWYRQAPGKERELVATITNGGGTNYADSVKGRFTISRDNAKNTVYLQMNSLKPEDTAVYYCARDVWSPDYLYDYWGQGTQVTVSS
  polyreactivity (PSR sort gate): low polyreactivity

## QVQLVESGGGLVQEGGSLRLICAASGSIFWLYAMGWYRQAPGKERELVAAIDSGDSTKYADSVKGRFTISRDNAKYTVYLQMNSLKPEDTAVYYCNASRRYHVRAPYDYWGQGTQVTVSS
  polyreactivity (PSR sort gate): low polyreactivity

## QVQLVESGGGLVQVGGILLLSCAASGFTFYDYAMGWYRQAPGKERELVAAISRGGSTYYADSVKGRFTISRDNAKNTVNLQMNSLKPEDTAVYYCNARPTRIYHGMVYWGQGTQVTVSS
  polyreactivity (PSR sort gate): low polyreactivity

## QVQLVESGGGLVQAGGSLRLICAASGFTFYKNTMGWYRQAPGKERELVAAISSSGSSTYYADSVKGRFTISRDNAKNTVYLQMNSLKPEDTAVYYCAAGRFAYHDDYWGQGTQVTVSS
  polyreactivity (PSR sort gate): high polyreactivity

## QVQLVESGGGLVQAGGSLRLSCAASGRTIDLNAMGWYRQAPGKERELVAAITSSGSTNYADSVKGRFTISRDNAKNTVYLQMNSLKPDDTAVYYCNKDPIYSAEYWVGSVGFDYWGQGTQVTVSS
  polyreactivity (PSR sort gate): low polyreactivity

## QVQLVESGGGLVQAGGSLRLSCAASGFTFSYYAMGWYRQAPGKERELVAAISFNGGRTYYADSVKGRFTISRDNAKNTVYLQMISLKPEDTAVYYCAARSLRPETLGDYWGQGTQVTVSS
  polyreactivity (PSR sort gate): high polyreactivity

## QVQLVESGGGLVQAGGSLRLSCAASGSTFVYNALGWDRQAPGKERELVAAITRRGGTTYYADSVKGRFTMSRDNAKNTVYLQMNSLKQEDTAVYYCAARTRGTAYNYSGQGTQVTVSS
  polyreactivity (PSR sort gate): high polyreactivity

## QVQIVESGGCLVQAGGSLRLICAASGNTFRWYDMGWYIQAPRKEREFVADITVRGGSTYYADSVKGRFTISRDNAKNTVYLQMNCLKPEDTAVYYCAVDFRRYPGFDYWGQGTQVTVSS
  polyreactivity (PSR sort gate): low polyreactivity

## QVQLVESGGGLVQAGGSLRLSCAASGSIFIRYAMGWYRQAPGKERELVAAITRSGGSTYYADSVKGRFTISRDNAKNTVYLQMNSLKPEDTAVYYCNVLLRRNGYFARGDYWGQGTQVTVSS
  polyreactivity (PSR sort gate): high polyreactivity

## QVQLVESGGGLVQAGGSLRLSSAASGRIFRPYAMGWYRPAPGKERELVAIRKSTGSTYYADSVKGRFTISRDNAKITVYLQMNSLKPEHTAVYYCAAPRDWDAGDYWGQGTQVTVSS
  polyreactivity (PSR sort gate): high polyreactivity

## QVQLVESGGGLVQAGGSLRLSCAASGSTFQYYAMGWYRPAPGKERELVAAISSGGSTYYADSVMGRFTISRDNAKNTVYLQMNSLKPEDNAVYYCAAYDYDGVYGYCGQGTQVTVSS
  polyreactivity (PSR sort gate): high polyreactivity

## QVQLVESGGGLVQAGGSLRLSCAASGRTFDIYAMGWYRQAHGKERELVAAISSGGSTYYADSVKGRFTISRDNAKNTVYLQMNSLKPEDTAVYYCAVRWYDQVSRRGIGYYWGQGTQVTVSS
  polyreactivity (PSR sort gate): low polyreactivity

## QVQLVESGGGLVQAGGSLRLSCAASGFIFDRNAMGWYRQAPGKERELVAAISVSGGNTYYADSVKGRFTISRDNAKNTVYLQMNSLKPEDTAVYYCAASRYHSTRGDYWGQGTQVTVSS
  polyreactivity (PSR sort gate): high polyreactivity

## QVQLVESGGGLVQAGGSLRLSCAASGFSFKYYAMGWYRQAPGKERELVATIRRGGSTYADSVKGRFTISRDNAKNSVYLQMNSLKPDDTAVYYCATRISSSTVPLYYFSGYNYWGQGTQVTVSS
  polyreactivity (PSR sort gate): high polyreactivity

## QVQLVESGGGLVQAGGSLRLSCAASGSIFPYNAMGWYRQAPGKEREFVAAITYSGGSTYYADSVKGRFTISRDNAKNTVYLQMNSLKPEDTAVYYCAAGYSSRGSRDGYWGQGTQVTVSS
  polyreactivity (PSR sort gate): low polyreactivity

## QVQLVESGGGLVQAGGRLRLSCAASGFTFAYYAMGGNRQSPGKERELVAAISSGGGSTYYADSEKGRFTISRDNAKNTVYLQMNSQKPEDTAVYYCAAESCSPQAWFDYWGQGTQVTVSS
  polyreactivity (PSR sort gate): high polyreactivity

## QVQLVESGGGLVQAGGSLRLSCAASGLIFYPYAMGWYRQAPGKERELVAGISSSGDSTYYADSVKGRFTISRDNAKNTVYLQMNSLKPDDTAVYYCNTGWDPYGYDYWGQGTQVTVSS
  polyreactivity (PSR sort gate): low polyreactivity
